Measured values from patent publication US6844318B2, “Peptidase-cleavable, targeted antineoplastic drugs and their therapeutic use” (priority 2000, dated 2005).
Where two headings read alike, the source gives them in different places. Residues, ends and D or L forms follow the SMILES beside them. *: point of attachment. Doxorubicin(3'-N) = COc1cccc2c1C(=O)c1c(O)c3c(c(O)c1C2=O)C[C@@](O)(C(=O)CO)C[C@@H]3O[C@H]1C[C@H](N*)[C@H](O)[C@H](C)O1

Tests used:
[1] = Stability of conjugates in human blood; type: in vitro ADME; details: fresh heparinized whole human blood, 37° C., read-out: Conjugate Stability in Blood After 5.5 Hours (Percent of Control (In Buffer, T = 0)), Human Blood
Experimental: (§1) The stability of doxorubicin conjugated peptides in human or nude mouse blood was evaluated by reverse phase HPLC with fluorescence detection after an 80% acetonitrile extraction. Individual peptides are prepared as 60 μmolar solutions in Hepes buffer pH 7.5 (50 mM), with CaCl2 (10 mM), Brij-35 (0.1%), followed by dilution to 10 μmolar in fresh heparinized whole blood or buffer. Solutions are incubated (37° C.) with slow continuous rocking. 50 μl reactions are terminated at designated times ranging from 1 minute to 24 hours by vortexing into 200 μl acetonitrile. After a brief centrifugation (1 min, 14,000×g) to pellet the precipitate, the acetonitrile is collected and evaporated to dry under a flow of nitrogen. Extracted samples are resuspended in 50 μl acetonitrile, followed by 100 μl distilled H2O, and transferred to HPLC autoinjector vials. Samples are chromatographed using a Nova-Pak C18 column (3.9×150 mm; WAT086344, Waters Corp. Milford, Ma), with a 12 minute linear gradient from 33.3 to 77.7% acetonitrile, 0.1% TFA, using a flow rate of 1 ml/min. A scanning fluorescence detector (# 474, Waters Corp) monitoring 480 nm excitation, 580 nm emission quantitates AUC of peaks of interest; mass is extrapolated from a standard curve generated under matching conditions.

[2] = Stability of conjugates in nude mouse blood; type: in vitro ADME; details: fresh heparinized whole nude mouse blood, 37° C., read-out: Conjugate Stability in Blood After 5.5 Hours (Percent of Control (In Buffer, T = 0)), Nude Mouse Blood
Experimental: as §1

[3] = Stability of conjugates in Hepes buffer (control of blood stability test); type: physicochemical; details: Hepes buffer pH 7.5, 10 μmolar, 37° C.
Experimental: as §1

HT1080 cells [4] = assay: cells; type: cell-based
Experimental: The conjugates were tested for cytotoxic effect against the HT1080 cell line, which expresses multiple MMPs. […] HT 1080 cells in culture have significant levels of MMPs 2, 9, and 14 and are consequently especially suitable for the evaluation of conjugates that are substrates for that enzyme.
The cell line was grown in tissue MEM with Earl's salts containing 10% fetal bovine serum (FBS). On day one, 500 cells were seeded into 96 well plates in 200 ul of cell culture medium that containing 10% FBS which had been stripped of bovine gelatinases by prior passage over a gelatin-sepharose column. On day two, peptidyl-Doxorubicin conjugates and Doxorubicin as a control were added to the plates. The cells were incubated for three days at 37° C., 5% CO2 in a tissue culture cell incubator. MTS reagent was added to each microplate well using the manufacturer's instructions […]. The plates were incubated for 2 hours at 37° C., 5% CO2. The plates were read on a Molecular Devices Spectropmax 250 plate reader at […]. The viability of the cells in each well was then calculated for each concentration of compound tested and compared to the control wells where no compound was added.

[5] = cited from earlier work
PSA protease = PSA protease (Homo sapiens, UniProt P07288); details: cited from earlier work
prostate tumor cells = details: cited from earlier work
[6] = Phase I trial, in the tumor tissue; cited from earlier work
[7] = mice; cited from earlier work
[8] = test system: human ovarian tumor xenograft; details: equitoxic doses; cited from earlier work
HT1080 cells [9] = assay: Analysis of processing by HT1080 cultures (HPLC); type: cell-based
Experimental: Actively growing HT1080 cells are seeded in a 12 well plate at 2×10^5 cells per well in DMEM with 10% serum. On the next day, media is removed and cells are washed twice with PBS. 1.5 of DMEM containing 0.1% BSA, […] Ac-PLG-HofK(Me2)L-Dox (SEQ ID NO: 127) and 40 nM PMA is then added to each well. A broad spectrum MMP inhibitor is added to some samples so that the amount of processing that is due to MMPs can be determined. At the indicated times, 0.1 ml aliquots are removed, added to 0.4 ml acetonitrile, vortexed, and centrifuged for 2 minutes. 0.4 of cleared supernatant is removed and dried using a nitrogen stream. The dried pellet is suspended in 0.12 ml of HPLC Buffer A and analyzed as in Example 1000.
At the times used in this experiment, the only detectable metabolite is L-Dox. HofK(Me2)L-Dox and K(Me2)L-Dox are not detected since they are rapidly converted to L-Dox. At later times, Dox is formed from L-Dox.

[10] = HT1080 cells, three days, MTS, read-out: EC50

Chain of PSA protease (P07288 25-261): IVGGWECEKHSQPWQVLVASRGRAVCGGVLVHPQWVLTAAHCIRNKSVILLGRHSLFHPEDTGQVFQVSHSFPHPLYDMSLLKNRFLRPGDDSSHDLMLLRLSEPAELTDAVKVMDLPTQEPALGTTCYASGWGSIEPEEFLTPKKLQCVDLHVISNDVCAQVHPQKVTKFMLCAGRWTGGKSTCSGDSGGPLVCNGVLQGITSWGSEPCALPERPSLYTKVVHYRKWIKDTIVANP

Compound	remaining at 5.5 h, 10 μmolar [1] [%]	remaining at 5.5 h, 10 μmolar [2] [%]	Conjugate Stability After 5.5 Hours (Percent of Control (In Buffer, T = 0)), Buffer [3] [%]	other results
COc1cccc2c1C(=O)c1c(O)c3c(c(O)c1C2=O)C[C@@](O)(C(=O)CO)C[C@@H]3O[C@H]1C[C@H](NC(=O)[C@H](CC(C)C)NC(=O)CNC(=O)[C@H](CC(C)C)NC(=O)[C@@H]2CCCN2C(=O)CNC(C)=O)[C@H](O)[C@H](C)O1 [Ac-GPLG-L-Dox] (Ac-GPLGL-{Doxorubicin(3'-N)})	10.2	5.9	106	
COc1cccc2c1C(=O)c1c(O)c3c(c(O)c1C2=O)C[C@@](O)(C(=O)CO)C[C@@H]3O[C@H]1C[C@H](NC(=O)[C@H](CC(C)C)NC(=O)[C@H](C)NC(=O)[C@H](CC(C)C)NC(=O)CNC(=O)[C@H](CC(C)C)NC(=O)[C@@H]2CCCN2C(=O)CNC(C)=O)[C@H](O)[C@H](C)O1 [Ac-GPLG-LAL-Dox, acetyl-G-P-L-G-L-A-L-Dox] (Ac-GPLGLAL-{Doxorubicin(3'-N)})	15.4	5.8	92.2	
COc1cccc2c1C(=O)c1c(O)c3c(c(O)c1C2=O)C[C@@](O)(C(=O)CO)C[C@@H]3O[C@H]1C[C@H](NC(=O)[C@H](CC(C)C)NC(=O)[C@H](CC(C)C)NC(=O)CNC(=O)[C@H](CC(C)C)NC(=O)[C@@H]2CCCN2C(=O)CNC(C)=O)[C@H](O)[C@H](C)O1 [Ac-GPLG-LL-Dox, acetyl-G-P-L-G-L-L-Dox] (Ac-GPLGLL-{Doxorubicin(3'-N)})	42.6	25.8	105	
COc1cccc2c1C(=O)c1c(O)c3c(c(O)c1C2=O)C[C@@](O)(C(=O)CO)C[C@@H]3O[C@H]1C[C@H](NC(=O)[C@H](CC(C)C)NC(=O)CNC(=O)[C@H](CC(C)C)NC(=O)[C@@H]2CCCN2C(C)=O)[C@H](O)[C@H](C)O1 [Ac-PLG-L-Dox, Ac-PLGL-Dox] (Ac-PLGL-{Doxorubicin(3'-N)})	74.7	68.2	99.2	
COc1cccc2c1C(=O)c1c(O)c3c(c(O)c1C2=O)C[C@@](O)(C(=O)CO)C[C@@H]3O[C@H]1C[C@H](NC(=O)[C@H](CC(C)C)NC(=O)[C@H](C)NC(=O)[C@H](CC(C)C)NC(=O)CNC(=O)[C@H](CC(C)C)NC(=O)[C@@H]2CCCN2C(C)=O)[C@H](O)[C@H](C)O1 [Ac-PLG-LAL-Dox, acetyl-P-L-G-L-A-L-Dox] (Ac-PLGLAL-{Doxorubicin(3'-N)})	49.1	9	96.8	EC50 (HT1080 cells [4]; [10]): < 10 µM
COc1cccc2c1C(=O)c1c(O)c3c(c(O)c1C2=O)C[C@@](O)(C(=O)CO)C[C@@H]3O[C@H]1C[C@H](NC(=O)[C@H](CC(C)C)NC(=O)[C@H](CC(C)C)NC(=O)CNC(=O)[C@H](CC(C)C)NC(=O)[C@@H]2CCCN2C(C)=O)[C@H](O)[C@H](C)O1 [Ac-PLG-LL-Dox, Acetyl-P-L-G-L-L-Dox] (Ac-PLGLL-{Doxorubicin(3'-N)})	87.2	63.8	106	EC50 (HT1080 cells [4]; [10]): < 10 µM
COc1cccc2c1C(=O)c1c(O)c3c(c(O)c1C2=O)C[C@@](O)(C(=O)CO)C[C@@H]3O[C@H]1C[C@H](NC(=O)[C@H](CC(C)C)NC(=O)[C@H](C)NC(=O)[C@H](CC(C)C)NC(=O)[C@H](CC(C)C)NC(=O)CNC(=O)[C@H](CC(C)C)NC(=O)[C@@H]2CCCN2C(C)=O)[C@H](O)[C@H](C)O1 [Ac-PLG-LLAL-Dox, acetyl -P-L-G-L-L-A-L-Dox] (Ac-PLGLLAL-{Doxorubicin(3'-N)})	55.6	19.2	102.0	EC50 (HT1080 cells [4]): < 10 µM
COc1cccc2c1C(=O)c1c(O)c3c(c(O)c1C2=O)C[C@@](O)(C(=O)CO)C[C@@H]3O[C@H]1C[C@H](NC(=O)[C@H](CC(C)C)NC(=O)[C@H](C)NC(=O)[C@H](Cc2ccc(O)cc2)NC(=O)[C@H](CC(C)C)NC(=O)CNC(=O)[C@H](CC(C)C)NC(=O)[C@@H]2CCCN2C(C)=O)[C@H](O)[C@H](C)O1 [Ac-PLG-LYAL-Dox, acetyl -P-L-G-L-Y-A-L-Dox] (Ac-PLGLYAL-{Doxorubicin(3'-N)})	37.5	20	91.3	EC50 (HT1080 cells [4]; [10]): < 10 µM
COc1cccc2c1C(=O)c1c(O)c3c(c(O)c1C2=O)C[C@@](O)(C(=O)CO)C[C@@H]3O[C@H]1C[C@H](NC(=O)[C@H](CC(C)C)NC(=O)[C@H](Cc2ccc(O)cc2)NC(=O)[C@H](CC(C)C)NC(=O)CNC(=O)[C@H](CC(C)C)NC(=O)[C@@H]2CCCN2C(C)=O)[C@H](O)[C@H](C)O1 [Ac-PLG-LYL-Dox, acetyl-P-L-G-L-Y-L-Dox] (Ac-PLGLYL-{Doxorubicin(3'-N)})	90.1		112	
COc1cccc2c1C(=O)c1c(O)c3c(c(O)c1C2=O)C[C@@](O)(C(=O)CO)C[C@@H]3O[C@H]1C[C@H](N)[C@H](O)[C@H](C)O1 [Doxorubicin, doxorubicin, reference compound]				EC50 (HT1080 cells [4]; Homo sapiens, HT-1080, 72 h, HT1080 cells, three days, MTS, read-out: EC50): 0.008 to 0.009 µM; cumulative dose in excess of which there is a substantial risk of cardiotoxicity and myelosuppression [5]: 500 to 550 mg doxorubicin/m^2
Ac-HSSKLQ-Leu-Dox: peptide-doxorubicin pro-drug targeted to the prostate-specific antigen (XSSKLQL; N-acetyl, Leu-doxorubicin conjugate)				substrate for the PSA protease (PSA protease): is a substrate for the PSA protease; activity against prostate tumor cells which express the protease activity (prostate tumor cells): is active against prostate tumor cells
Leu-Dox				conversion of Leu-Dox to Dox [6]: approximately 25%; overall conversion of Leu-Dox to Dox [7]: approximately 20%; anti-tumor efficacy compared with free doxorubicin [8]: more effective anti-tumor agent than free doxorubicin
acetyl-P-L-G-Hof-(N,N-dimethyl-K)-L-Dox (XLGXXL; non-natural residues) [Ac-PLG-HofK(Me2)L-Dox]				Fraction of L-Dox (HT1080 cells [9]; 0 hours, Minus MMP inhibitor): 0; Fraction of L-Dox (HT1080 cells [9]; 0 hours, Plus MMP inhibitor): 0; Fraction of L-Dox (HT1080 cells [9]; 3 hours, Minus MMP inhibitor): 0.10; Fraction of L-Dox (HT1080 cells [9]; 3 hours, Plus MMP inhibitor): 0.004; Fraction of L-Dox (HT1080 cells [9]; 5.5 hours, Minus MMP inhibitor): 0.20; Fraction of L-Dox (HT1080 cells [9]; 5.5 hours, Plus MMP inhibitor): 0.01; Fraction of L-Dox (HT1080 cells [9]; 8 hours, Minus MMP inhibitor): 0.46; Fraction of L-Dox (HT1080 cells [9]; 8 hours, Plus MMP inhibitor): 0.02
